Results from the DeepSol protein solubility set.

Test: soluble on expression in E. coli; label from the status in PepcDB or PDB records
For “MAHHHHHHMSSEHWVFFGLPPFFTEQHSSATLDRQCTLWSNLLLDHAIYHAQRTAGGDTNALLRFYTTQSDIFYNPAINKRLSPEGAHTMLQSLVARHPNHVVIVSDGGPRDFSVLVCTTEDGFKGMEETLLRYILDHGEVQTTAMLSKKGTVMTFDELASGAALGYGQTRSAYLARFSSAAVPVADVGRLSEEQAIRMYLHALNRRPVSAMRPFKVTLFNLDGTATQPYQGVKFGGE”, the “soluble on expression in E. coli” value was “soluble”. In the case of “MAHHHHHHMSSESYAIGQEELVYDRMFRVMRTVGEMMRDRKYQVPSSIIPETVGQFCEQYVDREGRRIYRERMTVPCERVGGTHRSRAMVFFASELGMEGMKGYCQTAMDANCERVIIVTHGKVNATVKRYVDCINRSGTGQKVQLFDEDDLVVNITHHELVPKHTQLEDEEVKEMLEAHSLELNMLPRILSTDPVAAYLGLERGRVVRIERKSVSAGFYVTYRQVV”, the “soluble on expression in E. coli” value was “not soluble”. For “MAHHHHHHMSSHQILITAPEVYSKRFAQALEARSLIPMAVPVIETIATPDTADMRALLEQDLNGIDYIAFCSRCAVDSLSAALDHRYGGGGESVSERAGSAPAVNEDRRATAVVKVLAKCALAAIGKDADYVFERLRIRTTICPDEPSPAGIAAKLAESGRAEGRTIAVLAPCVEGFTEPDVVPRFVDQLKGMGMKVVRVDAYMTRPVSEEAVSAAVTALKNGSVRGVAFTSAGEIAVLLRRSPQCLMNIDVACFGPYTAGFAAKHGVKVSCVAKDFRSFDGFAATIEQHYASR”, the “soluble on expression in E. coli” value was “soluble”. For “MAHHHHHHMSTKYIIEHLDELEEWCIHEYIHICETVRDENVIFTKFCENFSELTNGKYKPACYEKSIDELKNELLSGNICLLDMKAKNKLTCNDKNKIDFLLFGGILGNVPSDDRTSILRNFNFPISRNLGPIQMTTNTAVLVCYIILNDNVELENIPYVDDPEIFLKNNKESITLPFRFVSKYYYTKCEQDKNVPVLPEKFKEYLIKLGDQQFDDMSSFLENEDN”, the “soluble on expression in E. coli” value was “not soluble”. In the case of “MAHHHHHHMSTRKEPPKVLKGAAYTECSPISDVSHHKASASKAFLENHYRGMLRDTRSGNTARPVGPRPREPCVDDFVLVKRIGKGAFGEVYLCYKKYDNDKQLYALKRMRKTDMIRKKQISHVRSEKDVMAEAASTNPWVVKLYLSFQDEQYLYMVMEYMPGGDMISWLCIKQRFDVESTRFYIAELCAAVASVHDMFFVHRDIKPDNILLDAKGHIKLTDFGLSKRFAKVGEELLDLEEGNDALCSSNSSANLSNTCGSTCQGPNSVPVVSPHNPHSPTANYNSLTPAGSHASAHPQARRIFESIVGSPGYIAPEILLRQRYGVNCDWWSVGVIMYEMLYGIPPFFSSDTSSTCHKITHWREYLTYPSDRGVPPEATDLLRRLMCDQRDRLDFQGVKEHPFFNDIDWERLRETPPAFVPELSDPLDTHYFPEVEDNTPQQHHQRPEERNAVREVDPRGVIFADYKFNLKR”, the “soluble on expression in E. coli” value was “soluble”. With “MAHHHHHHMSTTNPTGETTEWDDLQRKYGNLPPLQKEVKEEEIYLNKLEKLEGVNPLEKKNLHELTLLEENCVDEDYLKIIEKHKANRIKEINRSRALDVFGTVYEISKDNFLTEVNEASKRNPLGEHGGRSMESTRGDEDLEEDEEQGVAASSTEGTEGTHVVIHLYSDNVLACKVINSILIQMARKHKYVKFTKGVYNRIVENYPESKLPTLLIYYNGTCIHQICNLLNNIKGGMNNLSLKTFERLMEKYNILRYPSSWMNSRQSVSDHSVNSSDVDSEEGSRYAEKGTRVRTHKQYTSFNMFDSKYTSRDYSSDEDRELKSRGYASSMLDKKVSRNEL” the “soluble on expression in E. coli” value was “not soluble”. In the case of “MAHHHHHHMSVEELFATARKYSDSVVGGPAWDRLFSLRLTNEEILCIAKKMILSQPTFLMEVNGTKLEEIPPLAVAVRIEAFTNVPKSEGESGGVEKAVALEEKRTAAQQREVLRELASVRAQYRAVLREGNDLMACIDEEERRWNKIEMHREEEQRKRKEHPAAPPSEHDEHIRKNVCALETLQQKREKEEESAQATARTVMAEKKRKKTGKGSRGGGGSEKKFASTSNVTSKEAEIRNVRAHNTALRRLLEKLANELKEEEQTMENLSIDLRGFMSDINKLEKAKLLLTVEHGMLMNTTARLQQSLRDQKEKLRQEQEAAAAEQREISRRLLVQQERTKKSLHEKNGTTELLHRLKTNLSK”, the “soluble on expression in E. coli” value was “not soluble”. With “MAHHHHHHMSWLTPSGSSYFLSKVVVNSAPCAPLHLLVMHRCRVAFPCVNYRPLLWRGMLQVPSRPTICDNSLKVQLRHSRISSFKQEGYYRFARAKDIHVDESCFTLLTARGGGPGGQGSNSSSNKVEMRVNMASLSEYFDEELIGNIKANECGKALTSDETQLIISSHEHRSMYQNKEECIRRLQQMIHVASWVPPVEANPIKKPSHIVSERKNERRKKSAVKKMRQTARKGLW” the “soluble on expression in E. coli” value was “not soluble”. With “MAHHHHHHMTGSNGNDEPFKREMRTVKVPHHRFPALKKVWMDVYTPIVEQCKLEIRMNLRGRSVELRTCPATVEAAGNEGSKALLQKAEDFVKAVVAGFDVKDAVALLRMDDVYIEGFEVKDVRANLQGDNLSRCIGRMSGSHGKTKHTIENVTRTRIVIADTHICIMGTTQNIRVARDALCDLIRGSPATKVYTRVRAVMNRVNDTF” the “soluble on expression in E. coli” value was “soluble”. With “MAHHHHHHMTHMGRAADGYQRLGNNYPQVTPSSHFAAASPDPVLATPIQTRPLQGNPFHPLLWNGSATSSTGAAGVQASLSRKSRTRLTSGVTAGSSSGPLSSTLSLSTPLSSCASAAASGEGRFQRRVSRDRFGACSTPTSSSTTAQVLQLQRPAQSPMPPLSSSPPASVGLTAAAARGAVTPANLGRERKVAAVNYNALFQQELQQQQRQGSDTGAWPTPSPSPPSGALQYAQLPPSASADVHGTGAHSGSGEGVSEALSSSVTASSVQAGTAEGPLPPDVRRIIAQSCTSSSSSSGADTNAIIDAAEQQARRLISTGRRVKVYREELTTAEEERNDLSAAVEERRLVRSVLQSEVDDINARIQALLQERALAEAQLHAQDDAAAREARKLTEAQDRVTVLRKTIEGIVEETSAARLMLRQIVPSLHIENYY” the “soluble on expression in E. coli” value was “not soluble”. With “MAHHHHHHMTHYSRKPQVSSKSAKAKVSDLRCHYKNTFETANVINGMPLRKAQQLYRQVLAKTRCIPFKRYNGKIGRTAQAKEWGQTKGRWPRKSVVAMMSLLKNAEANAIEKGLDPNQMVIKHVQVDQAARMRRRTYRAHGRITPYMCSPCHVQLFMSEKKERVPAPKSAPKK” the “soluble on expression in E. coli” value was “not soluble”. In the case of “MAHHHHHHMTRPRLTSAPRGSALKEAISAHQALRNAVAQEQSALDDELKKNEQILAEHEQLMRDWSCDKEGVLATIQKMKEKIAENESKTTEARAEVKQNEEIVKRLHARNEEYEPRLEASAIEIAERLKKREEEEKEMREQLLTFQIACQEREQQYRDQIHKLEETNAQEAVDHQQKVQQLRSKIAEVEATMEEERRAWVVETEMRKQQRLIERHKFFTEEAEEARKGKEACAAIMKEASALRMDSNLLTSLDDLLCC”, the “soluble on expression in E. coli” value was “not soluble”. In the case of “MAHHHHHHMTSVYNFKTITVVPTYKDFMDIVLSKTQRKTPTVVHKGYHISRIRQFYMRKVKFTQKTINEKLTYILQEFPRMDDIHPFYGDLMHVLYDRDHYKVALGQVGAVRHMVDNIGRDYVRLLKYGDSLYRCKQLKRAALGRMATACKKLNSALAYLEKVRQHMSRLPSIDPNARTLLVTGFPNVGKSSFMNKVTRADVEVQPYAFTTKSLFVGHTDYKYTTWQVIDTPGILDHSLEERNVIEMQAITALAHLRACILFFMDLSGQCGYSIEQQVSLFKSVGPLFTGKPVVVVFNKCDVCTIDDVSSAEQELIMDAIQEADAKWITTSTLTDVGVGDLKTVACDMLLAHRSEQKEGSGRYQAIQNRLYCATPQQRDELERPAFVPASVLQARATGEPPRQRRKTERDYEWENGGPGQYQKNERKTWDLENPEWVDDIIPDIMDGHNIYDNIDPDIHQRLLELEAEEEARLEDLELEASRKHEQYTLDNDTIEAVKFIKDKIKVLKMERAMKNPAIRRTHSQAMAIDKFNKRTGSQDARAKSIADGSGEVPTRKRGRSMSVAQEALIRDRSGSAHVSTKTTRSISGASASRERSMSVNRGDGYRDVNEKLRAVKLSKVKARPLARQARKGEGDHHIPNLRPMHLFTGKVKSNGARDRR”, the “soluble on expression in E. coli” value was “not soluble”. In the case of “MAHHHHHHMTTPSSPAHPAAHLCDVTGDTAAAAAAGASGMMADTARMLSPRPSVTRTAAKTSGGPVQVALSQSCPHPHQQHQQHHQHHQHQQHHQHHQHQQHHQHHQHQQHHQHQQHQQHQQPCLGGLLDPFFLTEIDENVQAFSGTAATSGSHTSLSGDGGSPSAKDAALCSPCVECVPPARGKTVRKSRSACELRLECLLSTSMGSDITKDEADDSKRKRRQPSSFPSSSRRDTAGCFSSVEVMGPTDEVAAADEAIATTAATAADAEAGVKSRDPKRRSLLPTWVTARTSTVTRAGAPPTDSGETSRTANGCLASPRSFSLSHSKPSSGSRDTSEGSHVLDCEATLLPSESVGVVASTHSSTVSSYASEAQGRAAEEATNCATAGGATVGSKMTLLVSLIMRCTPSRRGPPHSASPTEDGAADAERLPPLELYPPLVSPSSIEEASCGVGYDVPSAHHDDMYAMKDITVAVKEDVNQRRGALAKEPTLPASTASRRTQHTKWSMHPSPVSAWLLGSSAVGASLSTALWRAALRSRPAMHTPCSCVSARAEQHSVQVLSRVLANGSAVSTKVLAMRSWAEFERASVSFPSTWSASVSAHLSAVPPSLTTDSTTLRGPSMLHLTLPPLPDQTSVGPASIAYINRAPSRPAATAEEVVARQPCDVWRLARCYAHFERAVEQRGEDGVWSARGISSLATWDSVKLVVAAGVASRDAESSTDEGCEDGGAWLLPSFTLDVVPDTLDTPSPASPQVTSTFPFSPVVSVLRAEKEEEVFTSAVMWALEMMTGVR”, the “soluble on expression in E. coli” value was “soluble”. In the case of “MAHHHHHHMTTVLNRRFDVLCHSGTCPSYLIDVLSLLVAHANDTELFKTELRKGDGGEFGAAATGAGSAHATSSTGPASRTDRAVGEARERQAADRRTQLMYKQVEDPEVLDDALRASHETVLIAAERSLQTYTEDLKHINDIAMATSAKQLRAMRVETQQQMEAFRDRVCGSVVAQTKEELEVMRSELAASVRADVSDMVRQLHQVSFSTQQQLQQLTSSYTDFVAQAHDALTLAPLADAYEAVKTVEYMQEQLKCIEAAATTRSDVETLEERLKDLESIVTTLGSVAKTPDVGAAAAAREGFSVNVPPPLSLSQQKPVLSNRSASHRSQTPKCTSPLPLHLHVSRSASAKGRPSSPPPASPGPPAQRTLAERLGVAVEAAEDGVVLAEVLPGSAAAAHRLGVGHIISHVGRTAVKTPAAFEEALRGIEGQAVKITAYDPFNGRVRVLTAQPL”, the “soluble on expression in E. coli” value was “not soluble”. With “MAHHHHHHMTVNNSNNNNNGERLGSGTARLFVGQLNFDATEHDLRQIFSFYGHVIHTNVLRDADGKSTGSGFVTFRVTDEADFAIMSMHDRYNMGREKPLQVSYCRRSERISPFGYEHAMKLREKNTTNPPPPQPTSS” the “soluble on expression in E. coli” value was “soluble”. In the case of “MAHHHHHHMVLLSVKGTTFPDEFVYECTAATAIYPDLARNLCHIQNSRHLVKLILLSARELLDEARCKKRVEVVDEGPGDGGANSYSALLTEYGAIIESTSARLKDRVVPVSLEEFDQYADRLRELTERLYPEECCVPEGGRSAAVDRLYQLHDDPNLDEDRRLAVYHCRAILDPQWKSHEQQKEDKAGLWFCGKLMEDTIARYSGKNEKSRLTVKVHPKDSVPPSTEPRISYDDQRALYERMRTRREEYKGLEESELRDRVVAQARGKVALTAPAAASPAMSMDLSRLRPICPKREEHEVN”, the “soluble on expression in E. coli” value was “not soluble”. In the case of “MAHHHHHHMVNLRLQVAVVGAPTVGKTAFVQMLHSNGTTFPKNYLMTLGCDFIVKEVPVDDDNTVEMIIFDVSGQREYEPMVSSYLQNTAVFIVMYDVSNKVTFEACARWVNQVRTNSKESVGILIANKSDLSDKAEVTDRQGKDLANANKMKFYKISTLRGVGITEPIDEIARHYVDAYQKRIEQLTQMR”, the “soluble on expression in E. coli” value was “not soluble”. With “MAHHHHHHMWNLNRLYRQNELSMHGVRNNHDIIVVRQVNISDKNNPDNYLHNQNNTNTSIKQNPQSVILNEKELLNLVQNFNHINRKHKGFCETSIFKNSTFSNTNNEHNGEDSFNTYLIIDKWKTKREFEKSKKEFEKLFAHKNHLYDKKMEDIYLNYEMYNNNYETVSAQNIFQKLYYFIFD” the “soluble on expression in E. coli” value was “not soluble”.
